Our source for the binding result and Kd values is patent US20190194313A1 (JOINT STOCK COMPANY BIOCAD, published 2019).

The target in assay [1] is T1, Mouse sIL6R (mouse, UniProt P22272 20-364).
T1 construct: extracellular domain; also called mouse receptor; mouse IL-6R
T1 sequence (looked up): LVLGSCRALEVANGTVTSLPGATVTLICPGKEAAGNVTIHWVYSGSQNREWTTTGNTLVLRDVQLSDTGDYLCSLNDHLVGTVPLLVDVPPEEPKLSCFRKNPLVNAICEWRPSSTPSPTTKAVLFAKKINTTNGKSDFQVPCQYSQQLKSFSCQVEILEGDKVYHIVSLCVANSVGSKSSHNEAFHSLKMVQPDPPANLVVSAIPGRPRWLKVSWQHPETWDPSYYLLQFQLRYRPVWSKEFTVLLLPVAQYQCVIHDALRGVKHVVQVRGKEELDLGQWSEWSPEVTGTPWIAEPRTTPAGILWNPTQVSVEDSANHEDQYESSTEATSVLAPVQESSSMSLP
Nature of the assay: BLI, Octet Red 96, BCD89 immobilised on AR2G sensors; Table 2 prints '-' for KD. From the text:
(§1) The interaction of the selected anti-IL6R with interleukin-6 receptors of cynomolgus, guinea pig, dog and mouse was examined with ELISA (FIG. 11, 12). The binding affinity constants of BCD89 antibody to IL-6sR alpha subunit of a human, cynomolgus, guinea pig, dog and mouse were obtained with Octet Red 96 (by ForteBio). BCD89 was nonspecifically immobilized onto the surface of amino reactive sensors of the second generation (AR2G) using standard protocol according to manufacturer's instruction for preparation and immobilization of AR2G sensors. Analysis was conducted at 30° C. using PBS comprising 0.1% Tween-20 and 0.1% BSA as a working buffer. Titration of IL-6R of a human, cynomolgus, guinea pig, dog, rabbit and mouse was performed using a running buffer from concentration of 126 nM to 2 nM, spacing 2.
(§2) Binding curves, after subtracting a reference signal, were analyzed using Octet Data Analysis software (Version 7.0) in accordance with the standard procedure and using 1:1 interaction model.

The target in assay [2] is T2, Human sIL6R (recombinant IL-6sR alpha subunit of a human, Example 13) (human, UniProt P08887 20-365).
T2 construct: extracellular domain; also called recombinant IL-6R of a human; human IL-6R alpha subunit
T2 sequence (looked up): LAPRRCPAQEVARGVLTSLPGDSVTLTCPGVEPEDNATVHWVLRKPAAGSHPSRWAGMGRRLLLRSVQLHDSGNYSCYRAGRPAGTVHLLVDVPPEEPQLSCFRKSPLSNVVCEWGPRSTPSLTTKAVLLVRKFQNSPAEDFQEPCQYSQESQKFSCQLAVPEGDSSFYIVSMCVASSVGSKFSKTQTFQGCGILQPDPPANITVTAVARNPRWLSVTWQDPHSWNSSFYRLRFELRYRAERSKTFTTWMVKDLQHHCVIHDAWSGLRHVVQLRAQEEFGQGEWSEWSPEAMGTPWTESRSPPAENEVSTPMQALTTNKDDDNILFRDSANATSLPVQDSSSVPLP
Nature of the assay: BLI, Octet Red 96, BCD89 immobilised on AR2G sensors, receptor titrated from 126 nM to 2 nM, 1:1 model.
Description: as §1, §2

For assay [3], the target named is T3, Cynomolgus sIL6R (cynomolgus, UniProt A0A2K5WN54 60-396).
T3 construct: extracellular domain; also called IL-6sR of a cynomolgus; cynomolgus IL-6R alpha subunit
T3 sequence: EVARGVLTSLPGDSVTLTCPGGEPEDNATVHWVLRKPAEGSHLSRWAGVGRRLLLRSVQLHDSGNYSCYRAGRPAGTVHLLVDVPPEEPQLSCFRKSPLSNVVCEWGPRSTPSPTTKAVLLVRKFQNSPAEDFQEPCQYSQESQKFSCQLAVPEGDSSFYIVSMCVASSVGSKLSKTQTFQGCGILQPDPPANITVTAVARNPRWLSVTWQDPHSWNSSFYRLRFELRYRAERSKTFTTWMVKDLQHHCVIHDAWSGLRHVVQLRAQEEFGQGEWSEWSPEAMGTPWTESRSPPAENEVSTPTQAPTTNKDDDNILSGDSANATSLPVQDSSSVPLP
The description is as above.
Description: as §1, §2

In assay [4] the target is T4, Guinea Pig sIL6R (guinea pig).
T4 construct: extracellular domain; also called guinea pig IL-6R; guinea pig IL-6R alpha subunit
Described as above.
Description: as §1, §2

B1: BCD089 antibody (anti-IL-6sR) (antibody, IgG1, V domains shown)
VH: QVQLVQSGGGLVQPGGSLRLSCAASGFTFSSYYMSWVRQAPGKGLEWVSGIYSDGTTHYGDSVKGRFTISRDNAKNTVYLQLNSLRAEDTAMYYCAKGAGPTWWYALDAWGQGTLVTVSS
VL: DIQLTQSPSSVSVSVGERVTIDCKSSQSVLSASNTYLNWYQQKPGQAPQLLIYYASTRESGVPDRFSGSGSGTDFTLTISSLQAEDAAVYYCQQAYRAPVTFGQGTKLEIKR
notes: None of these passages names BCD089; also called BCD89; BCD-BCD-089 IgG1
B1: the binding result in assay [1] is “no binding”. Further, the Kd in assay [2] amounted to 0.663 nM; in assay [3], 2.4 nM; in assay [4], 306 nM.

A word on the Kd: it is the free concentration of one partner at which half of the binding sites on the other are occupied at equilibrium, for simple one-to-one binding.
